According to the RNAGym collection of RNA variant scans (doi:10.7554/elife.90254):

B1: LINE1-full (parent)
chain: UACGUAGGUGGUUUUCCCCUGAUAGUGCUAAGGGGGCCUGGAAGUUUGGACUGGGCAGAGCUCAACACAGCGUGGCAAAGUGGCUGUGGCUAGACUGCCUCUCUGGAUUCCUCGUCACUCAGCAGGGCAUCUCUGAGAGAAAUGCC

Variants of: B1
Test: self-cleavage, relative activity (ratio to wild type); higher = more cleavage; in vitro, sequencing; the parent is a self-cleaving ribozyme

| Variant | self-cleavage |
| --- | --- |
| UACGUAGGUGGUUUUCCCCUGAUAGUGCUAAGGGGGCCUGGAAGUCUGGACUGGGCAGAGCUCAACACAGCGUGGUAAAGUGGCUGUGGCUAGACUGCCUCUCUGGAUUCCUCGUCACUCAGCAGGGCAUCUCUGAGAGAAAUGCC [U46C C76U] | 2.44 |
| UACGUAGGUGGUUUUCCCCUGAUAGUGCUAAGGGGGCCUGGAAGUCUGGACUGGGCAGAGCUCAACACAGCGUGGCAAAGUGGCUGUGGCUUGACUGCCUCUCUGGAUUCCUCGUCACUCAGCAGGGCAUCUCUGAGAGAAAUGCC [U46C A92U] | 0.76 |
| UACGUAGGUGGUUUUCCCCUGAUAGUGCUAAGGGGGCCUGGAAGUCUGGACUGGGCAGAGCUCAACACAGCGUGGCCAAGUGGCUGUGGCUAGACUGCCUCUCUGGAUUCCUCGUCACUCAGCAGGGCAUCUCUGAGAGAAAUGCC [U46C A77C] | 1.01 |
| UACGUAGGUGGUUUUCCCCUGAUAGUGCUAAGGGGGCCUGGAAGUCUGGACUGGGCAGAGCUCAACACAGCGUGGCAAAGUGGCUGUGGCUAGACUGCCUCUCUGGAUUCCUCGUCACUCAGCAUGGCAUCUCUGAGAGAAAUGCC [U46C G125U] | 0.8 |
| UACGUAGGUGGUUUUCCCCUGAUAGUGCUAAGGGGGCCUGGAAGUCUGGACUGGGCAGAGCUCAACACAGCGUGGCAAAGUAGCUGUGGCUAGACUGCCUCUCUGGAUUCCUCGUCACUCAGCAGGGCAUCUCUGAGAGAAAUGCC [U46C G82A] | 2.42 |
| UACGUAGGUGGUUUUCCCCUGAUAGUGCUAAGGGGGCCUGGAAGUCUGGACUGGGCAGAGCUCAACACAGCGUGGCAAAGUGGCUGUGGCUAGACUGCCUCUCUGGAUUCCUCGUCACUCAGCAGAGCAUCUCUGAGAGAAAUGCC [U46C G126A] | 0.59 |
| UACGUAGGUGGUUUUCCCCUGAUAGUGCUAAGGGGGCCUGGAAGUCUCGACUGGGCAGAGCUCAACACAGCGUGGCAAAGUGGCUGUGGCUAGACUGCCUCUCUGGAUUCCUCGUCACUCAGCAGGGCAUCUCUGAGAGAAAUGCC [U46C G48C] | 1.2 |
| UACGUAGGUGGUUUUCCCCUGAUAGUGCUAAGGGGGCCUGGAAGUCUUGACUGGGCAGAGCUCAACACAGCGUGGCAAAGUGGCUGUGGCUAGACUGCCUCUCUGGAUUCCUCGUCACUCAGCAGGGCAUCUCUGAGAGAAAUGCC [U46C G48U] | 1.61 |
| UACGUAGGUGGUUUUCCCCUGAUAGUGCUAAGGGGGCCUGGAAGUCUGGACUGGGCAGAGCUCAACACAGCGUGGCAAAGUGGCUGUGGCUAGGCUGCCUCUCUGGAUUCCUCGUCACUCAGCAGGGCAUCUCUGAGAGAAAUGCC [U46C A94G] | 0.4 |
| UACGUAGGUGGUUUUCCCCUGAUAGUGCUAAGGGGGCCUGGAAGUCUGGACUGGGCAGAGCUCAAUACAGCGUGGCAAAGUGGCUGUGGCUAGACUGCCUCUCUGGAUUCCUCGUCACUCAGCAGGGCAUCUCUGAGAGAAAUGCC [U46C C66U] | 0.02 |
| UACGUAGGUGGUUUUCCCCUGAUAGUGCUAAGGGGGCCUGGAAGUCUGGACUGGGCAGAGCUCAACACAGCGUGGCAAAGUGGCUGUGGCUAGACUGCCUCUCUAGAUUCCUCGUCACUCAGCAGGGCAUCUCUGAGAGAAAUGCC [U46C G105A] | 1.16 |
| UACGUAGGUGGUUUUCCCCUGAUAGUGCUAAGGGGGCCUGGAAGUCUGGACUGGGCAGAGCUCAACACAGCGUGGCAAAGUGGCUGUGGCUAGACUGCCUCUCUGGAUUCCUCGUCACUCAGCAGGGCAUCUCUGUGAGAAAUGCC [U46C A136U] | 1.44 |
| UACGUAGGUGGUUUUCCCCUGAUAGUGCUAAGGGGGCCUGGAAGUCUGGACUGGGCAGAGUUCAACACAGCGUGGCAAAGUGGCUGUGGCUAGACUGCCUCUCUGGAUUCCUCGUCACUCAGCAGGGCAUCUCUGAGAGAAAUGCC [U46C C61U] | 0.04 |
| UACGUAGGUGGUUUUCCCCUGAUAGUGCUAAGGGGGCCUGGAAGUCUGGACUGGGCAGAGCUCAACAUAGCGUGGCAAAGUGGCUGUGGCUAGACUGCCUCUCUGGAUUCCUCGUCACUCAGCAGGGCAUCUCUGAGAGAAAUGCC [U46C C68U] | 0.44 |
| UACGUAGGUGGUUUUCCCCUGAUAGUGCUAAGGGGGCCUGGAAGUCUGGACUGGGCAGAGCUCAACACAGCGUGGCAAAGUGGCUGUGGCUAGACUGCCUCUCUGGAUUCCUCGUCACUCAGCAGGGUAUCUCUGAGAGAAAUGCC [U46C C128U] | 0.6 |
| UACGUAGGUGGUUUUCCCCUGAUAGUGCUAAGGGGGCCUGGAAGUCAGGACUGGGCAGAGCUCAACACAGCGUGGCAAAGUGGCUGUGGCUAGACUGCCUCUCUGGAUUCCUCGUCACUCAGCAGGGCAUCUCUGAGAGAAAUGCC [U46C U47A] | 1.37 |
| UACGUAGGUGGUUUUCCCCUGAUAGUGCUAAGGGGGCCUGGAAGUCUGGACUGGGCAGAGCUCAACACAGCGUGGCAAAGUGGCUGUGGCUAGACUGCCUCUCUGGAUUCCUCGUCACUCAGCAGGGCAUCUCUGAGAGAAGUGCC [U46C A142G] | 1.35 |
| UACGUAGGUGGUUUUCCCCUGAUAGUGCUAAGGGGGCCUGGAAGUCUGGACUGGACAGAGCUCAACACAGCGUGGCAAAGUGGCUGUGGCUAGACUGCCUCUCUGGAUUCCUCGUCACUCAGCAGGGCAUCUCUGAGAGAAAUGCC [U46C G55A] | 0.59 |
| UACGUAGGUGGUUUUCCCCUGAUAGUGCUAAGGGGGCCUGGAAGUCUGGACUGGGCAGAGCUCAACACAGCGUGGCAAAGUGGCUGUGGCUAGACUGCCUCUCUGGAUUCCUCGUCACUCAGCAGGGCCUCUCUGAGAGAAAUGCC [U46C A129C] | 1.99 |
